What all share (test): cell-based or functional assay
The target of test [1] is integrin αvβ3 on cells (T24, MDA-MB-435, β3-transfected 293 cells) (human) (UniProt P06756).
The target of test [2] is integrin αvβ5 on cells (T24, T24-β3 neg., OVCAR-5) (human) (UniProt P06756).
Test [3] has as its target integrin receptors on the surface of MDA-MB-435 cells.

Chain of integrin αvβ5 on cells (T24, T24-β3 neg., OVCAR-5) (human) (P06756 31-1048, chain 1 of 2): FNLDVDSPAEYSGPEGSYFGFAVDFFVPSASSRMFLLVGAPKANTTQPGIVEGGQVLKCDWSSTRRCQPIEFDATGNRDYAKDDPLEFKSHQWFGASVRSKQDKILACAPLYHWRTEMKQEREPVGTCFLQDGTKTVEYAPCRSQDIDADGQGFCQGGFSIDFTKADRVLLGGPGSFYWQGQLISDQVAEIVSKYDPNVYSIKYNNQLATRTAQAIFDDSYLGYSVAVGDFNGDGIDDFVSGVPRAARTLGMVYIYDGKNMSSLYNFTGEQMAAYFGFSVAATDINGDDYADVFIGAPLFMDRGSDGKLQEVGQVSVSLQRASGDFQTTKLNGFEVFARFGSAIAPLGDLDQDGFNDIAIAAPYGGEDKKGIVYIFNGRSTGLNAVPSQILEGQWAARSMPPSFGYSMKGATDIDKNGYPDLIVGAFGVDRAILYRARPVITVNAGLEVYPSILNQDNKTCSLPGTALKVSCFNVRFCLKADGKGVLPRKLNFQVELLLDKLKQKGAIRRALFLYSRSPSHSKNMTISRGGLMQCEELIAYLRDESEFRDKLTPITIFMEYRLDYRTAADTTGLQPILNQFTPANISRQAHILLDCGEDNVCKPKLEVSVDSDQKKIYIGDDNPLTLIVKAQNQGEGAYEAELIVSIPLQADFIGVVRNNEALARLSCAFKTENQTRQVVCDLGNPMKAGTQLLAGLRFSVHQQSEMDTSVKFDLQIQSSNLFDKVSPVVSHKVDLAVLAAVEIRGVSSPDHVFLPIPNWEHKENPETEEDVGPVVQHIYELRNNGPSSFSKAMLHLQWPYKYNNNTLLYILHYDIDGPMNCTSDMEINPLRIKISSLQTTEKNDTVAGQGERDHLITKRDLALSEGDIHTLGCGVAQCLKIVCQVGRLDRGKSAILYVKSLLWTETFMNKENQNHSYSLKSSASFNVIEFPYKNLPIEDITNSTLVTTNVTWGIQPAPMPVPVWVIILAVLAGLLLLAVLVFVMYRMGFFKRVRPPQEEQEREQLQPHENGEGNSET
Chain of integrin αvβ5 on cells (T24, T24-β3 neg., OVCAR-5) (human) (P18084 24-799, chain 2 of 2, further chain): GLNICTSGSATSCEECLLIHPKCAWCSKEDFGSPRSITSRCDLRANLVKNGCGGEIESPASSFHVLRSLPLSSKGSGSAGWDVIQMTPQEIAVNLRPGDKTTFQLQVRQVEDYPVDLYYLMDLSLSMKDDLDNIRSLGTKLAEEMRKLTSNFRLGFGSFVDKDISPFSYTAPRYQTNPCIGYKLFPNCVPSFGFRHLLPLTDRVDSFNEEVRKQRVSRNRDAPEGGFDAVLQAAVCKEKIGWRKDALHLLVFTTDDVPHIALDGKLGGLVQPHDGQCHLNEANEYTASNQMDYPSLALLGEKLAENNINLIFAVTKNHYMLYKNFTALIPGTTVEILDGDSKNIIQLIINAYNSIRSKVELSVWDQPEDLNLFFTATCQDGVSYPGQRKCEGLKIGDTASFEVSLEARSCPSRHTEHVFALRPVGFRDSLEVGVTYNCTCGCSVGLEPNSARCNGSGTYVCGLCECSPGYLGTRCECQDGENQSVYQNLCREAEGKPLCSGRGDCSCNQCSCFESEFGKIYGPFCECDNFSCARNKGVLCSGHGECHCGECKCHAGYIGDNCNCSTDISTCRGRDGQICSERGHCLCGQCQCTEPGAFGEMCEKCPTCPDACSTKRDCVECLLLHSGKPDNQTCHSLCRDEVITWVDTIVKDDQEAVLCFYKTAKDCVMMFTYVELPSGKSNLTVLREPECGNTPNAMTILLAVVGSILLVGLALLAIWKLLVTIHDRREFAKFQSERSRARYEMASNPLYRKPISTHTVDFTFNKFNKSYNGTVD
Chain of integrin αvβ3 on cells (T24, MDA-MB-435, β3-transfected 293 cells) (human) (P06756 31-1048, chain 1 of 2): as the sequence (P06756 31-1048, chain 1 of 2) above
Chain of integrin αvβ3 on cells (T24, MDA-MB-435, β3-transfected 293 cells) (human) (P05106 27-788, chain 2 of 2, further chain): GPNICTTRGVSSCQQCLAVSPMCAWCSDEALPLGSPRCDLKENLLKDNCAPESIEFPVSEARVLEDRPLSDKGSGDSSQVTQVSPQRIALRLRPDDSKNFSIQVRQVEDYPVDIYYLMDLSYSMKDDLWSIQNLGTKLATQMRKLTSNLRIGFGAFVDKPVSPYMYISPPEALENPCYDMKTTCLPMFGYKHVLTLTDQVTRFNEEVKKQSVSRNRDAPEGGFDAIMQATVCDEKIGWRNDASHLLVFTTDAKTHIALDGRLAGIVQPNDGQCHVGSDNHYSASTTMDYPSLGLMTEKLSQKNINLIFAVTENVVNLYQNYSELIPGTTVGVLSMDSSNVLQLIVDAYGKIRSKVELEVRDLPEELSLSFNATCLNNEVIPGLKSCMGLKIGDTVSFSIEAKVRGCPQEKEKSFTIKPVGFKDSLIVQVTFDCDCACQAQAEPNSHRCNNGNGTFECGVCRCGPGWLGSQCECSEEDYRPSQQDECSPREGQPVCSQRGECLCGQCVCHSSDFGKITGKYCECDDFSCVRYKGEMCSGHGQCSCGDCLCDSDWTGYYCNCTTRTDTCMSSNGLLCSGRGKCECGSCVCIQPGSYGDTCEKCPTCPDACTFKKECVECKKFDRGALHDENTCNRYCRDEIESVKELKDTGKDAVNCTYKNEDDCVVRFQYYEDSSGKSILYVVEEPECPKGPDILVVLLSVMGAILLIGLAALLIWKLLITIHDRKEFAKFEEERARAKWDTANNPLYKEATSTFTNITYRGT

In the case of “7E3, murine monoclonal antibody against (GP)IIb/IIIa that also binds αvβ3”, the inhibition of adhesion of T24 cells to immobilized vitronectin in test [1] is less than 40%.
In test [2], P1F6, anti-αvβ5 monoclonal antibody came in with an inhibition of adhesion of T24-β3 neg. cells to immobilized vitronectin of 80% and an inhibition of adhesion of T24 cells to immobilized vitronectin of less than 40%.
Take RGD peptide GRGDSP: in test [3], the inhibition of binding of MDA-MB-435 cells to immobilized CN (IC50) stood at 400 µM.

The values above are taken from US6710030.
